Source: patent publication US20070078092A1 (CUREGENICS, published 2007)
Square brackets hold non-standard residues; d marks the D form. Ends that are not written are not given here. * marks the point of attachment. Cholesteryloxycarbonyl = CC(C)CCC[C@@H](C)[C@H]1CC[C@H]2[C@@H]3CC=C4C[C@@H](OC(=O)*)CC[C@]4(C)[C@H]3CC[C@]12C; Myristoyl = CCCCCCCCCCCCCC(=O)*; hLeu = CC(C)CC[C@H](N)C(=O)O; Orn = NCCC[C@H](N)C(=O)O; Nva = CCC[C@H](N)C(=O)O; Dap = NC[C@H](N)C(=O)O

Experiments:
Assay in all cases: cell-based or functional assay
protein kinase B (PKB) [1] = target: protein kinase B (PKB)
protein kinase A (PKA) [2] = target: protein kinase A (PKA)
protein kinase B (PKB) [3] = target: protein kinase B (PKB); remark: listed apart in the source
protein kinase B (PKB) [4] = target: protein kinase B (PKB); remark: listed apart in the source
protein kinase B (PKB) [5] = target: protein kinase B (PKB); remark: listed apart in the source
protein kinase A (PKA) [6] = target: protein kinase A (PKA); remark: listed apart in the source
protein kinase B (PKB) [7] = target: protein kinase B (PKB); remark: listed apart in the source
protein kinase A (PKA) [8] = target: protein kinase A (PKA); remark: listed apart in the source

Binder	IC50, kinase assay PKB (protein kinase B (PKB) [1])	IC50, kinase assay PKA (protein kinase A (PKA) [2])	also measured
Cholesteryloxycarbonyl-GRPR[Nva]YA[hLeu]-NH2 (SMILES CCC[C@H](NC(=O)[C@H](CCCNC(=N)N)NC(=O)[C@@H]1CCCN1C(=O)[C@H](CCCNC(=N)N)NC(=O)CNC(=O)O[C@H]1CC[C@@]2(C)C(=CC[C@H]3[C@@H]4CC[C@H]([C@H](C)CCCC(C)C)[C@@]4(C)CC[C@@H]32)C1)C(=O)N[C@@H](Cc1ccc(O)cc1)C(=O)N[C@@H](C)C(=O)N[C@@H](CCC(C)C)C(N)=O) [PTR 6198]	0.5 µM	5 µM	–
Cholesteryloxycarbonyl-RPR[Nva]Y[Dap][hLeu]-NH2 (SMILES CCC[C@H](NC(=O)[C@H](CCCNC(=N)N)NC(=O)[C@@H]1CCCN1C(=O)[C@H](CCCNC(=N)N)NC(=O)O[C@H]1CC[C@@]2(C)C(=CC[C@H]3[C@@H]4CC[C@H]([C@H](C)CCCC(C)C)[C@@]4(C)CC[C@@H]32)C1)C(=O)N[C@@H](Cc1ccc(O)cc1)C(=O)N[C@@H](CN)C(=O)N[C@@H](CCC(C)C)C(N)=O) [PTR 6164]	0.7 µM	10 µM	–
RPR[Nva]YA[hLeu]-NH2 (N-terminus assumed; SMILES CCC[C@H](NC(=O)[C@H](CCCNC(=N)N)NC(=O)[C@@H]1CCCN1C(=O)[C@@H](N)CCCNC(=N)N)C(=O)N[C@@H](Cc1ccc(O)cc1)C(=O)N[C@@H](C)C(=O)N[C@@H](CCC(C)C)C(N)=O) [PTR 6184]	–	–	IC50, PKB kinase inhibition (protein kinase B (PKB) [5]): 0.3 µM; IC50, PKA kinase inhibition (protein kinase A (PKA) [6]): > 50 µM
RQIKIWFQNRRMKWKKRPR[Nva]Y[Dap][hLeu]K(Cholesteryloxycarbonyl)-NH2 (N-terminus assumed; SMILES CCC[C@H](NC(=O)[C@H](CCCNC(=N)N)NC(=O)[C@@H]1CCCN1C(=O)[C@H](CCCNC(=N)N)NC(=O)[C@H](CCCCN)NC(=O)[C@H](CCCCN)NC(=O)[C@H](Cc1c[nH]c2ccccc12)NC(=O)[C@H](CCCCN)NC(=O)[C@H](CCSC)NC(=O)[C@H](CCCNC(=N)N)NC(=O)[C@H](CCCNC(=N)N)NC(=O)[C@H](CC(N)=O)NC(=O)[C@H](CCC(N)=O)NC(=O)[C@H](Cc1ccccc1)NC(=O)[C@H](Cc1c[nH]c2ccccc12)NC(=O)[C@@H](NC(=O)[C@H](CCCCN)NC(=O)[C@@H](NC(=O)[C@H](CCC(N)=O)NC(=O)[C@@H](N)CCCNC(=N)N)[C@@H](C)CC)[C@@H](C)CC)C(=O)N[C@@H](Cc1ccc(O)cc1)C(=O)N[C@@H](CN)C(=O)N[C@@H](CCC(C)C)C(=O)N[C@@H](CCCCNC(=O)O[C@H]1CC[C@@]2(C)C(=CC[C@H]3[C@@H]4CC[C@H]([C@H](C)CCCC(C)C)[C@@]4(C)CC[C@@H]32)C1)C(N)=O) [PTR 6316]	–	–	IC50, in vitro kinase assay PKB (protein kinase B (PKB) [7]): 0.1 µM; IC50, in vitro kinase assay PKA (protein kinase A (PKA) [8]): 5 µM
Cholesteryloxycarbonyl-RPR[Nva]YA[hLeu]-NH2 (SMILES CCC[C@H](NC(=O)[C@H](CCCNC(=N)N)NC(=O)[C@@H]1CCCN1C(=O)[C@H](CCCNC(=N)N)NC(=O)O[C@H]1CC[C@@]2(C)C(=CC[C@H]3[C@@H]4CC[C@H]([C@H](C)CCCC(C)C)[C@@]4(C)CC[C@@H]32)C1)C(=O)N[C@@H](Cc1ccc(O)cc1)C(=O)N[C@@H](C)C(=O)N[C@@H](CCC(C)C)C(N)=O) [PTR 6196]	0.5 µM	5 µM	–
Cholesteryloxycarbonyl-RPR[Orn]E(aminopropylmercaptoisoquinoline)SF-NH2 [PTR 6300]	–	–	IC50, in vitro kinase assay PKA (protein kinase A (PKA) [8]): 0.3 µM
RPR[Nva]Y[Dap][hLeu]-NH2 (N-terminus assumed; SMILES CCC[C@H](NC(=O)[C@H](CCCNC(=N)N)NC(=O)[C@@H]1CCCN1C(=O)[C@@H](N)CCCNC(=N)N)C(=O)N[C@@H](Cc1ccc(O)cc1)C(=O)N[C@@H](CN)C(=O)N[C@@H](CCC(C)C)C(N)=O) [PTR 6154]	–	–	IC50, PKB kinase inhibition (protein kinase B (PKB) [5]): 0.9 µM; IC50, PKA kinase inhibition (protein kinase A (PKA) [6]): > 50 µM
Myristoyl-GRPR[Nva]Y[Dap][hLeu]-NH2 (SMILES CCCCCCCCCCCCCC(=O)NCC(=O)N[C@@H](CCCNC(=N)N)C(=O)N1CCC[C@H]1C(=O)N[C@@H](CCCNC(=N)N)C(=O)N[C@@H](CCC)C(=O)N[C@@H](Cc1ccc(O)cc1)C(=O)N[C@@H](CN)C(=O)N[C@@H](CCC(C)C)C(N)=O) [PTR 6180]	0.9 µM	20 µM	–
RPR[Orn]E(NH‑(CH2)2‑NH‑SO2‑Isoquinoline)SF [PTR 6132]	–	–	IC50, PKB kinase inhibition (protein kinase B (PKB) [5]): 0.02 µM; IC50, PKA kinase inhibition (protein kinase A (PKA) [6]): 0.012 µM

Second part, led by results:

IC50, kinase assay PKB (protein kinase B (PKB) [1])	IC50, kinase assay PKA (protein kinase A (PKA) [2])	Binder	also measured
3 µM	10 µM	{Vitamin E succinate}-RPR[Nva]Y[Dap][hLeu]-NH2 [PTR 6244]	–
1 µM	> 5 µM	Cholesteryloxycarbonyl-RPR[Orn]E(Aminoethylsulfonamidoisoquinoline)SF-NH2 [PTR 6260]	–
0.8 µM	10 µM	[dR][dR][dR][dR][dR][dR][dR][dR][dR]GRPR[Nva]YA[hLeu]-NH2 (N-terminus assumed; SMILES CCC[C@H](NC(=O)[C@H](CCCNC(=N)N)NC(=O)[C@@H]1CCCN1C(=O)[C@H](CCCNC(=N)N)NC(=O)CNC(=O)[C@@H](CCCNC(=N)N)NC(=O)[C@@H](CCCNC(=N)N)NC(=O)[C@@H](CCCNC(=N)N)NC(=O)[C@@H](CCCNC(=N)N)NC(=O)[C@@H](CCCNC(=N)N)NC(=O)[C@@H](CCCNC(=N)N)NC(=O)[C@@H](CCCNC(=N)N)NC(=O)[C@@H](CCCNC(=N)N)NC(=O)[C@H](N)CCCNC(=N)N)C(=O)N[C@@H](Cc1ccc(O)cc1)C(=O)N[C@@H](C)C(=O)N[C@@H](CCC(C)C)C(N)=O) [PTR 6252]	IC50, in vitro PKB inhibition (protein kinase B (PKB) [3]): 0.8 µM; % Inhibition of PKB activity at 1 µM (protein kinase B (PKB) [4]): 65%; % Inhibition of PKB activity at 10 µM (protein kinase B (PKB) [4]): 93%
